{
  "source": "patent US20220313738A1",
  "about": "(NANJING LEGEND BIOTECH, published 2022)",
  "binders": {"B1": {"name": "wildtype SIV Nef (other)", "chain": "MGSSNSKRQQQGLLKLWRGLRGKPGADWVLLSDPLIGQSSTVQEECGKALKKSWGKGKMTPDGRRLQEGDTFDEWDDDEEEVGFPVQPRVPLRQMTYKLAVDFSHFLKSKGGLDGIYYSERREKILNLYALNEWGIIDDWQAYSPGPGIRYPRVFGFCFKLVPVDLHEEARNCERHCLMHPAQMGEDPDGIDHGEVLVWKFDPKLAVEYRPDMFKDMHEHAKR"}, "B2": {"name": "SIV Nef M116 (other)", "chain": "B1 chain with L178A, M179A"}},
  "assay_in_all_cases": "cell-based or functional assay",
  "key": {"[1]": {"target": "M665 (CD8α SP-BCMA scFv-CD8α hinge-CD8α TM-ISD)"}, "[2]": {"target": "M666 (CD8α SP-BCMA scFv-CD8α hinge-CD8α TM-ISD)"}, "[3]": {"target": "M663 (CD8α SP-BCMA scFv-CD8α hinge-CD8α TM-ISD)"}},
  "note": "Residue numbers refer to the chain shown, from its start.",
  "data": [
    {"binder": "B1", "values": [
      {"measurement": "relative ISD-modified CAR positive rate (FACS), day 3, against empty vector control", "setting": "[1]", "value": 82.3, "unit": "%"},
      {"measurement": "relative ISD-modified CAR positive rate (FACS), day 3, against empty vector control", "setting": "[2]", "value": 57, "unit": "%"},
      {"measurement": "relative ISD-modified CAR positive rate (FACS), day 3, against empty vector control", "setting": "[3]", "value": 46.7, "unit": "%"}
    ]},
    {"binder": "B2", "values": [
      {"measurement": "relative ISD-modified CAR positive rate (FACS), day 3, against empty vector control", "setting": "[1]", "value": 70.3, "unit": "%"},
      {"measurement": "relative ISD-modified CAR positive rate (FACS), day 3, against empty vector control", "setting": "[2]", "value": 56.2, "unit": "%"},
      {"measurement": "relative ISD-modified CAR positive rate (FACS), day 3, against empty vector control", "setting": "[3]", "value": 50.9, "unit": "%"}
    ]}
  ]
}
